Here are results for one substance from article PMC10615762.

The assay concerns the target Fusion protein of Nipah virus (F-clamp) (Nipah virus). Nature of the assay: SEC. Background: SEC sorts molecules by how far they enter the pores of the column.

Take Fusion protein of Nipah virus (F-clamp): the stoichiometry N came to 3.

As a reminder, the stoichiometry N is a count of units in the complex or per binding partner.
